{
  "source": "patent US20140087436",
  "test_in_all_cases": "EMSA",
  "key": {"[1]": {"target": "T1, CbbR G98R (Ralstonia eutropha) (UniProt P42722)", "T1 sequence": "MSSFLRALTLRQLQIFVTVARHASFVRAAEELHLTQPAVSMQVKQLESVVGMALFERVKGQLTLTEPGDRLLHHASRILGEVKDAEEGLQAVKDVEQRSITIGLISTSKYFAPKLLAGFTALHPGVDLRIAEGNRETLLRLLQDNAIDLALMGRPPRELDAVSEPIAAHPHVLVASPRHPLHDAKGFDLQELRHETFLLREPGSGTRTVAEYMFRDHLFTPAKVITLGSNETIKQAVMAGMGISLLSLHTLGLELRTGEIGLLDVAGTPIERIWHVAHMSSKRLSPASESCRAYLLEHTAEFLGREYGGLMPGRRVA", "settings": "fold change in affinity with 400 uM PEP vs no metabolite; RuBP 1.2, ATP 0.99"}, "[2]": {"target": "T2, CbbR R135C R135C (Ralstonia eutropha) (UniProt P42722)", "T2 sequence": "T1 sequence with R98G, R135C", "settings": "fold change in affinity with 400 uM PEP vs no metabolite; RuBP 0.59, ATP 1.3"}, "[3]": {"target": "T3, CbbR R154H R154H (Ralstonia eutropha) (UniProt P42722)", "T3 sequence": "T1 sequence with R98G, R154H", "settings": "fold change in affinity with 400 uM PEP vs no metabolite; RuBP 0.68, ATP 1.2"}, "[4]": {"target": "T4, CbbR R272Q (Ralstonia eutropha) (UniProt P42722)", "T4 sequence": "T1 sequence with R98G, R272Q", "settings": "fold change in affinity with 400 uM PEP vs no metabolite; RuBP 0.76, ATP 1.4; printed R272O in table"}, "[5]": {"target": "T5, CbbR wild type (Ralstonia eutropha) (UniProt P42722)", "T5 sequence": "T1 sequence with R98G", "settings": "fold change in affinity with 400 uM PEP vs no metabolite; RuBP 2.3, ATP 3.2, NADPH 1.5, RU5P 0.91, FBP 0.96"}},
  "note": "Positions count from the first letter of the chain named.",
  "data": [
    {"substance": "cbb promoter probe, 246 bp chromosomal", "values": [
      {"measurement": "binding signal", "setting": "[1]", "value": 2.7, "unit": "fold"},
      {"measurement": "binding signal", "setting": "[2]", "value": 0.97, "unit": "fold"},
      {"measurement": "binding signal", "setting": "[3]", "value": 1.3, "unit": "fold"},
      {"measurement": "binding signal", "setting": "[4]", "value": 0.85, "unit": "fold"},
      {"measurement": "binding signal", "setting": "[5]", "value": 3.8, "unit": "fold"}
    ]}
  ]
}
